Assay results as given in patent US11845963B2, “HSD17B13 variants and uses thereof” (Regeneron Pharmaceuticals, Inc., priority 2017, dated 2023).
“Also recorded” adds a separate entry of the source.

T1: recombinant human HSD17B13 (Homo sapiens, UniProt Q7Z5P4)
T1 sequence (Q7Z5P4 20-300): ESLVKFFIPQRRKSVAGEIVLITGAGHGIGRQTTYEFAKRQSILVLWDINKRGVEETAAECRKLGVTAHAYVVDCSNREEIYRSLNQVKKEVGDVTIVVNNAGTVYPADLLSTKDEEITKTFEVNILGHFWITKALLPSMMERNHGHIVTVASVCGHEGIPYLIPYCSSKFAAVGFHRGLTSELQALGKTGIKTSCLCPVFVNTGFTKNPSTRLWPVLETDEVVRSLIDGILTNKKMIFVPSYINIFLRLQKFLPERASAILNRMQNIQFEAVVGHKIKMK

T2: recombinant human HSD17B13 (Homo sapiens, UniProt Q7Z5P4)
T2 construct: Transcript A, which encodes the full-length 300 amino acid protein; 10xHis (C); host or cells: E. coli
T2 sequence (Q7Z5P4 with tags, fused parts or gaps): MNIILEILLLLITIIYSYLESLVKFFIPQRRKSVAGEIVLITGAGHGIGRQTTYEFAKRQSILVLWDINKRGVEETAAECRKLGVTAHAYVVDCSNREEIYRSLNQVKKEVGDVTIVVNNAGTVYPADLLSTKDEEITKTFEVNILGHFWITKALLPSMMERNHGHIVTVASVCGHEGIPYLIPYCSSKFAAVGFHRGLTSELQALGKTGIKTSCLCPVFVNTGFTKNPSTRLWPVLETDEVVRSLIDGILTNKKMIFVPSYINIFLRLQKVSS

B1: HSD17B13 isoform D: HSD17B13 protein Isoform D, SEQ ID NO:42; prematurely truncated protein encoded by Transcript D of the rs72613567 variant (protein)
chain: T2 sequence (Q7Z5P4 with tags, fused parts or gaps)
modifications: homo sapien
notes: prematurely truncated protein encoded by Transcript D of the rs72613567 variant
B2: HSD17B13 isoform A: HSD17B13 protein Isoform A, SEQ ID NO:39; full-length 300 amino acid protein encoded by Transcript A (protein)
chain: MNIILEILLLLITIIYSYLESLVKFFIPQRRKSVAGEIVLITGAGHGIGRQTTYEFAKRQSILVLWDINKRGVEETAAECRKLGVTAHAYVVDCSNREEIYRSLNQVKKEVGDVTIVVNNAGTVYPADLLSTKDEEITKTFEVNILGHFWITKALLPSMMERNHGHIVTVASVCGHEGIPYLIPYCSSKFAAVGFHRGLTSELQALGKTGIKTSCLCPVFVNTGFTKNPSTRLWPVLETDEVVRSLIDGILTNKKMIFVPSYINIFLRLQKFLPERASAILNRMQNIQFEAVVGHKIKMK
modifications: homo sapien
notes: full-length 300 amino acid protein encoded by Transcript A

How the values were obtained:
[1] = molecular target: T1, recombinant human HSD17B13; test: Substrate screening of steroid and bioactive lipid libraries against purified recombinant HSD17B13 (NADH-Glo); type: biochemical; conditions: 265 unique putative substrates tested
Description: Reactions were performed in a final volume of 40 μl of assay buffer (0.2 M Tris-HCl, pH 7.5) which contained 500 μM NAD^+, 5 μM bioactive lipid or 50 μM steroid (all in a final concentration of 5% DMSO), and 100 ng recombinant human HSD17B13. Reactions were incubated for 3 hours, at 23° C. after which an equal volume NADH-Glo Detection Reagent (Promega) was added. Following a 1 hour incubation at 23° C., the relative light units (RLUs) were measured on an Envision Plate Reader (Perkin Elmer). Raw RLU values were normalized as percent of control (50 μM estradiol) following subtraction of negative control (5% DMSO) using the following formula: Percent of control (POC)=100×(Sample (RLU)−Negative CTRLaverage)/(Positive CTRLaverage−Negative CTRLaverage).

[2] = system: HepG2 cells overexpressing HSD17B13 Transcript A or D or GFP; test: Quantification of intracellular triglyceride content in stable cell lines; type: cell-based, human; conditions: for intracellular triglyceride content of overexpressing cell lines versus GFP control: with oleic acid treatment, FIG. 10
Description: HepG2 cells were cultured in Eagle's Minimum Essential Medium supplemented with 10% fetal bovine serum. HSD17B13 transcripts A and D were sub-cloned into Myc-DDK backbone lentivirus constructs, and lentivirus were generated. HepG2 cells were infected with lentivirus carrying the HSD17B13 transcripts. Stable cell lines expressing each HSD17B13 transcript were selected with 1-3 mg/ml Geneticin G-418 sulfate in complete culture medium for two weeks. Following fixation, HSD17B13 isoforms were detected with mouse anti-Myc antibody. Lipid droplets were labeled with BODIPY FL dye (Sigma). Secondary antibodies for immunofluorescence were Alexa Fluor 488 donkey anti-rabbit IgG and Alexa Fluor 594 donkey anti-mouse IgG (Jackson ImmunoResearch).
The triglyceride (TG) content from the stable cells was determined using a TG quantification kit (Abcam). In the assay, TG are converted to free fatty acids and glycerol. The glycerol is then oxidized to generate a product which is quantified (spectrophotometry at λ=570 nm).

[3] = molecular target: T2, recombinant human HSD17B13; test: In vitro enzymatic activity of purified recombinant HSD17B13 isoforms A and D (NADH production, NAD(P)H-Glo); type: biochemical; conditions: FIG. 4E
Description: Recombinant human HSD17B13 protein was purified from E. coli (Genscript) transformed with plasmid DNA harboring HSD17B13 transcript A or transcript D. The HSD17B13 variants contained a 10×His tag at the C terminus and were purified from soluble fraction using a Ni2^+ affinity purification. Enzymatic activity was determined through measurement of NADH production using the NAD(P)H-Glo Detection System (Promega). Reactions were performed for 3 hours at 25° C. in 0.2 M Tris-HCl, pH 7.5, 0.5 mM NAD^+, 75 μM of substrate (Sigma) and 500 ng purified enzyme in a final volume of 100 μL. After incubation, 20 μL of the reaction was combined with 20 μL luciferase reagent (Promega), incubated at room temperature for 1 hour and read on an Envision Plate Reader (Perkin Elmer).

[4] = system: HEK293 cells overexpressing HSD17B13 transcript A, transcript D or GFP; test: Cell-based conversion of estradiol to estrone in culture media, LC-MS; set-up: species or system human; conditions: overexpressed in HEK293 cells; FIG. 4F
Description: HEK293 cells overexpressing HSD17B13 transcript A, transcript D or green fluorescent protein (GFP, control) were used to investigate the activity of HSD17B13 against estradiol in a cell-based assay. Estradiol (1 μM) was fed to each cell type. After 48 hours, the media was collected and the concentration of estradiol and its converted product estrone were identified and quantified by LC-MS.

Row | Molecule | intracellular triglyceride content of overexpressing cell lines versus GFP control [2] | conversion of estradiol (substrate) to estrone (product) measured in the culture media [4] | further results
1 | CCCCC/C=C\C[C@@H](O)/C=C/C=C/C=C\[C@@H](O)CCCC(=O)O [leukotriene B4] |  |  | identified as enzymatic substrate of HSD17B13 [1]: enzymatic substrates of HS17B13
2 | CCCCCCCC/C=C\CCCCCCCC(=O)O [oleic acid, reference compound] |  |  | triglyceride (TG) content after oleic acid treatment ([2]; increasing concentrations of oleic acid, control (GFP), HSD17B13 transcript A and D HepG2 cell lines, FIG. 10B): increased triglyceride (TG) content to a similar extent
3 | B1 | No differences in intracellular triglyceride content | did not show much conversion; also recorded: greatly reduced activity towards estradiol | activity towards estradiol in vitro compared to HSD17B13 isoform A ([3]; recombinant protein, NAD+ cofactor): greatly reduced activity towards estradiol; enzymatic activity of the corresponding values for isoform A ([3]; substrates 17-beta estradiol, leukotriene B4 (LTB4), 13(S)-HODE): < 10%
4 | B2 | No differences in intracellular triglyceride content | showed robust conversion | 
